Values belong to the binder of their own block, whether it stands above or below them.
Legend:
[1] = biological target: cyno pro-myostatin (cynomolgus monkey); experiment: ELISA-type titration, OD 450 nm, Cyno-Pro-GDF-8 Plate 1; protocol not described in the text
murine pro-myostatin [2] = biological target: T1, murine pro-myostatin (mouse, UniProt O08689 25-376, biotinylated (SPR)); experiment: ELISA-type titration, absorbance 450 nm, panel Murine Pure Pro-GDF-8; protocol not described in the text
T1 construct: also called proGDF8 (mouse); mouse pro-myostatin

human pro-myostatin = biological target: T2, human pro-myostatin (human, UniProt O14793 24-375, biotinylated (SPR)); experiment: SPR Biacore 8K, biotinylated antigen captured
T2 construct: Disulfide-linked homodimer; also called proGDF8 (human)

murine pro-myostatin [3] = biological target: T1, murine pro-myostatin; experiment: ELISA-type titration, OD 450 nm, Mu-Pro-GDF-8 Plate 1; protocol not described in the text
[4] = biological target: cyno pro-myostatin (cynomolgus monkey); experiment: ELISA-type titration, OD 450 nm, Cyno-Pro-GDF-8 Plate 2; protocol not described in the text

B1: Ab110 (antibody, human IgG4 S228P, kappa, V domains shown)
VH: QVQLVQSGAEVKKPGASVKVSCKVSEYTFTNYDIHWVRQAPGKGLEWMGGISAYHGNAIYAQKFQGRVTMTEDTSTDTAYMELSSLKSEDTAVYYCARDRVRRDYYNFGMDVWGQGTTVTVSS
VL: DIQMTQSPSSVSASVGDRVTITCRASEDITSYLAWYQQKPGKAPKLLIYDVSSLQSGVPSRFSGSGSGTDFTLTISSLQPEDFANYYCLQHNAYPYGFGGGTKVEIKR
EC50 (read off the curve) [1]: 300 pM

B5: Ab116 (antibody, human IgG4 S228P, kappa, V domains shown)
VH: QVQLVQSGAEVKKPGASVKVSCKVSGFTFSRPAIHWVRQAPGKGLEWMGGINPNAATTIYAQKFQGRVTMTEDTSTDTAYMELSSLKSEDTAVYYCARGRLLREWELRPYDTWGQGTLVTVSS
VL: DIQMTQSPSSVSASVGDRVTITCRASQSIGKSLAWYQQKPGKAPKLLIYSASNLRSGVPSRFSGSGSGTDFTLTISSLQPEDFANYYCQQYRDVPPITFGGGTKVEIKR
EC50 (read off the curve) [4]: 500 pM

Further lines, results first:

EC50 (read off the curve) (murine pro-myostatin [2]): ~700 pM
B2: Ab104 (antibody, human IgG4 S228P, kappa, V domains shown)
VH: EVQLVESGGGLVQPGGSLRLSCAASGSAFSSYGMSWVRQAPGKGLELVASINSNGGSTYYPDSVKGRFTISRDNAKNSLYLQMNSLRAEDTAVYYCARDLLVKFLSWSHYYGMDVWGQGTTVTVSS
VL: DIVMTQSPLSLPVTPGEPASISCRSSQSLLHSSGHNFLHWYLQKPGQSPQLLIYEVSNRVSGVPDRFSGSGSGTDFTLKISRVEAEDVGVYYCMQQTQYPPTFGGGTKVEIKR

koff (human pro-myostatin): ~0.000916 s⁻¹
B3: Ab109 (antibody, human IgG4 S228P, kappa, V domains shown)
VH: EVQLVESGGGLVQPGGSLRLSCAASGFTFSSYGMSWVRQAPGKGLELVASFTGSGGTYYPDSVKGRFTISRDNAKNSLYLQMNSLRAEDTAVYYCARDLLIRFLEWSHYYGMDVWGQGTTVTVSS
VL: B2 VL
notes: also called Ab109 Human IgG4

binding result (murine pro-myostatin [3]): binds
B4: Ab113 (antibody, human IgG4 S228P, kappa, V domains shown)
VH: QVQLVQSGAEVKKPGASVKVSCKVSGYLLTELSIHWVRQAPGKGLEWMGGIIPSFGTAIYAQKFQGRVTMTEDTSTDTAYMELSSLKSEDTAVYYCAISYSGFDLLPLDKWGQGTLVTVSS
VL: DIQMTQSPSSVSASVGDRVTITCRASQHISTWLAWYQQKPGKAPKLLIYYASSLQGGVPSRFSGSGSGTDFTLTISSLQPEDFANYYCLQTYTYPRTFGGGTKVEIKR
